The target of this series is T1, RanGAP1 (human, UniProt P46060 1-587).
T1 sequence: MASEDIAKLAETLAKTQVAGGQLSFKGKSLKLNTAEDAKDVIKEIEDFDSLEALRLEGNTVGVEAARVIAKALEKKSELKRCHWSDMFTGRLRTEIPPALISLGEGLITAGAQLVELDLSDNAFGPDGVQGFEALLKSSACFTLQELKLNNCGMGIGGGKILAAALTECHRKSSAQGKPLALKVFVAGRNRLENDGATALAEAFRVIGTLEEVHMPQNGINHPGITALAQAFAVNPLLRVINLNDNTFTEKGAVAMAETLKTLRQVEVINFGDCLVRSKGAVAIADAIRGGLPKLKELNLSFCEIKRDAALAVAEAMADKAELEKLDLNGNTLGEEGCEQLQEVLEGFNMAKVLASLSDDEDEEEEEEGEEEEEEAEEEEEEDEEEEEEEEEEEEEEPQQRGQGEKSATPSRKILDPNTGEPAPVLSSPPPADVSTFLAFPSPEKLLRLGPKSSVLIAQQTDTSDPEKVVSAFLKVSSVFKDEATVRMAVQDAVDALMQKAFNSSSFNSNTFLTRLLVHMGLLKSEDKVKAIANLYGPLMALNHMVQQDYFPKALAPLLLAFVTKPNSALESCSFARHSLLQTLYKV
As to the kind of experiment: EMSA. A general note: Mobility shift assays separate free from complexed probe on a gel.

Consider 1 molecule from article PMC4800742.

For GGGGCCGGGGCCGGGGCCGGGGCC (structured_RNA) [(G4C2)4 G-quadruplex], the “apparent K (half saturation)” value turned out to be 162 nM.
